Like-named read-outs stand apart in the source and are kept apart here.
Assays:
Experiment in all cases: GFET
[1] = biological target: T1, TNF-alpha (human, UniProt P01375 77-233)
[2] = biological target: T1, TNF-alpha; remark: listed apart in the source
[3] = biological target: T1, TNF-alpha; remark: listed apart in the source

T1 sequence (P01375 77-233): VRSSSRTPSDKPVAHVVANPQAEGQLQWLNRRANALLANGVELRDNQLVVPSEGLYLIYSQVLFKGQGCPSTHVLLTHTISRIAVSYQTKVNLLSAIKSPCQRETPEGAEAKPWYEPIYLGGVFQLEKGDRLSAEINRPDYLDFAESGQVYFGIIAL

Binder: TGGTGGATGGCGCAGTCGGCGACAA (ssDNA, 5'-NH2 (amine, coupled to PASE on graphene)) [VR11 aptamer]
- Kd [1]: 28.4 nM
- Kd [2]: 28.4 nM
- Kd [3]: 27.4 nM

Reference: publication PMC7536116
